The conditions of this data set: whole UniProt chain shown.
Where [1] appears, read: Staphylococcus aureus, pH 7, Thermal, CD, NaPP 0.1 M, reversible: yes.
[2] abbreviates: Staphylococcus aureus, pH 7, Thermal, Fluorescence, NaPP 0.1 M, reversible: yes.
[3] abbreviates: Thermotoga maritima (strain ATCC 43589 / DSM 3109 / JCM 10099 / NBRC 100826 / MSB8), pH 7.4, 25 °C, GdnHCl, CD, sodium phosphate, transition: 2, reversible: yes.
The mark [4] stands for this setting: Sus scrofa, pH 6.5, Thermal, DSC, Sodium phosphate 5 mM, reversible: yes.
Setting [5] is: Thermus thermophilus (strain ATCC 27634 / DSM 579 / HB8), pH 5.5, 25 °C, Urea, CD, NaOAc 20 mM, KCl 50 mM, reversible: yes.
The mark [6] stands for this setting: Thermus thermophilus (strain ATCC 27634 / DSM 579 / HB8), pH 5.5, Thermal, CD, Sodium acetate 5 mM, KCl 50 mM, reversible: yes.
Where [7] appears, read: Thermotoga maritima (strain ATCC 43589 / DSM 3109 / JCM 10099 / NBRC 100826 / MSB8), pH 6, 29 °C, Thermal, CD, sodium phosphate 50 mM, reversible: yes.
[8] abbreviates: Saccharomyces cerevisiae (strain ATCC 204508 / S288c), pH 8.5, Thermal, DSC, Tris 0.05 M, reversible: no.
Where [9] appears, read: Streptococcus phage Cp-1, pH 7, Thermal, DSC, phosphate 20 mM, reversible: no.
The mark [10] stands for this setting: Streptococcus phage Cp-1, pH 7, Thermal, DSC, phosphate 20 mM, transition: 3, reversible: no.

Values joined by “and” are separate entries in the source; they are usually repeats but may differ in a detail not shown here. Identical values can stand only once.

B1: Dihydroneopterin aldolase wild type, P56740 (protein)
chain: MQDTIFLKGMRFYGYHGALSAENEIGQIFKVDVTLKVDLSEAGRTDNVIDTVHYGEVFEEVKSIMEGKAVNLLEHLAERIANRINSQYNRVMETKVRITKENPPIPGHYDGVGIEIVRENK
With B1, under setting [1], the midpoint of thermal melting (Tm) is 42.5 °C and the “unfolding enthalpy (van 't Hoff)” value is 141 kcal/mol. Moreover, under setting [2], the Tm came to 43.5 °C and the “unfolding enthalpy (van 't Hoff)” value was 151 kcal/mol.

B2: wild type, Q9WZ62 (protein)
chain: MKKLLAVSILLVSIVIFSGAIDEIKSRGYLLVGLSADFPPFEFVDENGNIVGFDVDLAKEIARRLGVELKIVDMTFDGLIPSLLTKKIDVIISGMTITEERKKVVAFSDPYFDAGQVIVVRKDSDFRPKTYEDLVGKTVAVQIGTTGDIEVSKYDGIKVVRFDKFTDAFLELKRGRADAVVLDSATARAFVAKNPDLVISSGVLSSEQYGIAVRKEDTDLLEFINSVLRELKKSPYDVLIEKWFSE
As for B2, under setting [3], the denaturant m value is 2.63 kcal/mol/M and 2.86 kcal/mol/M; the “denaturant midpoint (higher = more stable)” value was 5 M and 4.5 M; the unfolding free energy was 12.9 kcal/mol and 13.1 kcal/mol.

B3: Gastricsin wild type, P30879 (protein)
chain: SVIKVPLKKLKSIRQAMKEKGLLEEFLKTHKYDPAQRYRIGDISVALEPMAYLEAAYFGEISIGTPPQNFLVL
B3: under setting [4], the Tm came to 64.5 °C, the “heat capacity change of unfolding” value came to 6.1 kcal/mol/K, the “unfolding enthalpy (calorimetric)” value came out at 256 kcal/mol and the “unfolding enthalpy (van 't Hoff)” value was determined as 131 kcal/mol.

B4: Glutathione S-transferase P wild type, P80031 (protein)
chain: PPYTITYFPVRGRCEAMRMLLADQDQSWKEEVVTMETWPPLKPSCLFRQLPKFQDGDLTLYQSNAILRHLGRSFGLYGKDQKEAALVDMVNDGVEDLRCKYATLIYTNYEAGKEKYVKELPEHLKPFETLLSQNQGGQAFVVGSQISFADYNLLDLLRIHQVLNPSCLDAFPLLSAYVARLSARPKIKAFLASPEHVNRPINGNGKN
In the case of B4, the unfolding free energy (Sus scrofa, pH 6.5, 20 °C, GdnHCl, CD, Mes-NaOH 20 mM, NaCl 0.1 M) is 11.6 kcal/mol and 22.5 kcal/mol.

B5: NAD(P)H-dependent FMN reductase LOT6 wild type, Q07923 (protein)
chain: MKVGIIMGSVRAKRVCPEIAAYVKRTIENSEELIDQKLKIQVVDLQQIALPLYEDDDELIPAQIKSVDEYADSKTRSWSRIVNALDIIVFVTPQYNWGYPAALKNAIDRLYHEWHGKPALVVSYGGHGGSKCNDQLQEVLHGLKMNVIGGVAVKIPVGTIPLPEDIVPQLSVHNEEILQLLASCIETTRNK
For the protein B5, the Tm (Saccharomyces cerevisiae (strain ATCC 204508 / S288c), pH 7.5, Thermal, CD, Tris-HCl 100 mM, reversible: No) was 60.2 °C.

B6: Ribonuclease H wild type, P29253 (protein)
chain: MNPSPRKRVALFTDGACLGNPGPGGWAALLRFHAHEKLLSGGEACTTNNRMELKAAIEGLKALKEPCEVDLYTDSHYLKKAFTEGWLEGWRKRGWRTAEGKPVKNRDLWEALLLAMAPHRVRFHFVKGHTGHPENERVDREARRQAQSQAKTPCPPRAPTLFHEEA
For the protein B6, under setting [5], the denaturant m value came out at 2 kcal/mol/M and the unfolding free energy worked out at 12.8 kcal/mol. Also, under setting [6], the Tm was found to be 86 °C, the “heat capacity change of unfolding” value is 1.8 kcal/mol/K and the “unfolding enthalpy (van 't Hoff)” value was found to be 131 kcal/mol.

B7: Elongation factor Ts wild type, P43895 (protein)
chain: MSQMELIKKLREATGAGMMDVKRALEDAGWDEEKAVQLLRERGAMKAAKKADREAREGIIGHYIHHNQRVGVLVELNCETDFVARNELFQNLAKDLAMHIAMMNPRYVSAEEIPAEELEKERQIYIQAALNEGKPQQIAEKIAEGRLKKYLEEVVLLEQPFVKDDKVKVKELIQQAIAKIGENIVVRRFCRFELGA
As to B7, the Tm (Thermus thermophilus (strain ATCC 27634 / DSM 579 / HB8), pH 7, Thermal, CD, Phosphate 10 mM, reversible: No) is 115 °C.

B8: Chemotaxis protein CheY wild type, Q56312 (protein)
chain: MGKRVLIVDDAAFMRMMLKDIITKAGYEVAGEATNGREAVEKYKELKPDIVTMDITMPEMNGIDAIKEIMKIDPNAKIIVCSAMGQQAMVIEAIKAGAKDFIVKPFQPSRVVEALNKVSK
As to B8, under setting [7], the “heat capacity change of unfolding” value stood at 1.17 kcal/mol/K and the unfolding free energy came to 9.54 kcal/mol. The Tm (Thermotoga maritima (strain ATCC 43589 / DSM 3109 / JCM 10099 / NBRC 100826 / MSB8), pH 6, Thermal, CD, sodium phosphate 50 mM, reversible: yes) worked out at 101 °C.

B9: Triosephosphate isomerase wild type, P00942 (protein)
chain: MARTFFVGGNFKLNGSKQSIKEIVERLNTASIPENVEVVICPPATYLDYSVSLVKKPQVTVGAQNAYLKASGAFTGENSVDQIKDVGAKWVILGHSERRSYFHEDDKFIADKTKFALGQGVGVILCIGETLEEKKAGKTLDVVERQLNAVLEEVKDWTNVVVAYEPVWAIGTGLAATPEDAQDIHASIRKFLASKLGDKAASELRILYGGSANGSNAVTFKDKADVDGFLVGGASLKPEFVDIINSRN
For the protein B9, under setting [8], the Tm came out at 59 °C, the “heat capacity change of unfolding” value came to 11.7 kcal/mol/K and the “unfolding enthalpy (calorimetric)” value worked out at 318 kcal/mol.

B10: Lysozyme wild type, P15057 (protein)
chain: MVKKNDLFVDVSSHNGYDITGILEQMGTTNTIIKISESTTYLNPCLSAQVEQSNPIGFYHFARFGGDVAEAEREAQFFLDNVPMQVKYLVLDYEDDPSGDAQANTNACLRFMQMIADAGYKPIYYSYKPFTHDNVDYQQILAQFPNSLWIAGYGLNDGTANFEYFPSMDGIRWWQYSSNPFDKNIVLLDDEEDDKPKTAGTWKQDSKGWWFRRNNGSFPYNKWEKIGGVWYYFDSKGYCLTSEWLKDNEKWYYLKDNGAMATGWVLVGSEWYYMDDSGAMVTGWVKYKNNWYYMTNERGNMVSNEFIKSGKGWYFMNTNGELADNPSFTKEPDGLITVA
For the protein B10, under setting [9], the Tm came to 42.9 °C, the “unfolding enthalpy (calorimetric)” value was 109 kcal/mol and the “unfolding enthalpy (van 't Hoff)” value came to 232 kcal/mol. Under setting [10], the melting temperature (Tm) amounted to 43.5 °C, the “unfolding enthalpy (calorimetric)” value was 143 kcal/mol and the “unfolding enthalpy (van 't Hoff)” value is 100 kcal/mol.

B11: Tryptophan synthase alpha chain wild type, P00929 (protein)
chain: MERYENLFAQLNDRREGAFVPFVTLGDPGIEQSLKIIDTLIDAGADALELGVPFSDPLADGPTIQNANLRAFAAGVTPAQCFEMLALIREKHPTIPIGLLMYANLVFNNGIDAFYARCEQVGVDSVLVADVPVEESAPFRQAALRHNIAPIFICPPNADDDLLRQVASYGRGYTYLLSRSGVTGAENRGALPLHHLIEKLKEYHAAPALQGFGISSPEQVSAAVRAGAAGAISGSAIVKIIEKNLASPKQMLAELRSFVSAMKAASRA
For the protein B11, the unfolding free energy (Salmonella typhimurium (strain LT2 / SGSC1412 / ATCC 700720), pH 7, 25 °C, GdnHCl, CD, Potassium phosphate 0.01 M, reversible: yes) amounted to 9.7 kcal/mol. Also, the Tm by setting is: (Salmonella typhimurium (strain LT2 / SGSC1412 / ATCC 700720), pH 7.8, Thermal, Enzyme activity, sodium N/N-bis(2-hydroxyethyl)glycine 0.05 M) 46 °C; (Salmonella typhimurium (strain LT2 / SGSC1412 / ATCC 700720), pH 9, Thermal, DSC, Sodium tetraborate 1 mM, reversible: yes(>70%)) 47.6 °C.

As a reminder, the Tm is the temperature at which the thermal transition is half complete.

The values are drawn from FireProtDB.
